# Measurements published in IntAct's records for PubMed 16696976.
# B1: Amphiphysin (Homo sapiens), P49418 (parent)
# chain: MADIKTGIFAKNVQKRLNRAQEKVLQKLGKADETKDEQFEEYVQNFKRQEAEGTRLQRELRGYLAAIKGMQEASMKLTESLHEVYEPDWYGREDVKMVGEKCDVLWEDFHQKLVDGSLLTLDTYLGQFPDIKNRIAKRSRKLVDYDSARHHLEALQSSKRKDESRISKAEEEFQKAQKVFEEFNVDLQEELPSLWSRRVGFYVNTFKNVSSLEAKFHKEIAVLCHKLYEVMTKLGDQHADKAFTIQGAPSDSGPLRIAKTPSPPEEPSPLPSPTASPNHTLAPASPAPARPRSPSQTRKGPPVPPLPKVTPTKELQQENIISFFEDNFVPEISVTTPSQNEVPEVKKEETLLDLDFDPFKPEVTPAGSAGVTHSPMSQTLPWDLWTTSTDLVQPASGGSFNGFTQPQDTSLFTMQTDQSMICNLAESEQAPPTEPKAEEPLAAVTPAVGLDLGMDTRAEEPVEEAVIIPGADADAAVGTLVSAAEGAPGEEAEAEKATVPAGEGVSLEEAKIGTETTEGAESAQPEAEELEATVPQEKVIPSVVIEPASNHEEEGENEITIGAEPKETTEDAAPPGPTSETPELATEQKPIQDPQPTPSAPAMGAADQLASAREASQELPPGFLYKVETLHDFEAANSDELTLQRGDVVLVVPSDSEADQDAGWLVGVKESDWLQYRDLATYKGLFPENFTRRLD
# partner: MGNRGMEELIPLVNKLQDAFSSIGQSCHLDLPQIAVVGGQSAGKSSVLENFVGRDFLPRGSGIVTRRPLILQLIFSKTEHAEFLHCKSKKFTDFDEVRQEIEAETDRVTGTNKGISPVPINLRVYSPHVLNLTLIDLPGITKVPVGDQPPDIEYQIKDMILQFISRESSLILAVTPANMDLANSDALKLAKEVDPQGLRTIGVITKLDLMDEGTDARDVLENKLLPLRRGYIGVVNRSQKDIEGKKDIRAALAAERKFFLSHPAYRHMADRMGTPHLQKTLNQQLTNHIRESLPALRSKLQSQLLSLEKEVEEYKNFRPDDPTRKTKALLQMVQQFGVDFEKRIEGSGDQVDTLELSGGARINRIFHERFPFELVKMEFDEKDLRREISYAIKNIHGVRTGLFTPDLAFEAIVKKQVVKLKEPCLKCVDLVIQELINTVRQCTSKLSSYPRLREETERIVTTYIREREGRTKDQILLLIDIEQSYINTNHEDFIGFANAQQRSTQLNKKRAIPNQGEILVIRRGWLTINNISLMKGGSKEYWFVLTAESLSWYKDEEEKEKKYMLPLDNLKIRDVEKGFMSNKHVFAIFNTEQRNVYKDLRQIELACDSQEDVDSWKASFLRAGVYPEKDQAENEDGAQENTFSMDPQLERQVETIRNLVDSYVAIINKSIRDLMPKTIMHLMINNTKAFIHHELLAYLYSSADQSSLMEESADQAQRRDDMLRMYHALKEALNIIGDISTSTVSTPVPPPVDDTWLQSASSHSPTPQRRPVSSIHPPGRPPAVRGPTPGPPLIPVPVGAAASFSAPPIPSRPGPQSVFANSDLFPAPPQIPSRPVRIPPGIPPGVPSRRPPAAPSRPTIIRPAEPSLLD
# Variants of: B1
# Settings: with dyn2_human DNM2, P50570
row,effect of a mutation on the interaction,Variant
1,disrupting interaction,G684R
2,disrupting interaction,P687L
